From patent EP4603109A1 (Sichuan Kelun-Biotech Biopharmaceutical Co., Ltd., dated 2024)

Assays:
[1] = target: T1, B7-H3 on human tumor cell lines (HT29, NCI-N87, HCC1806, HCC827, A375) (human, UniProt Q5ZPR3 29-534); test: flow cytometry on HT29 cells (experiment 2)
T1 construct: whole, on cells
T1 sequence (looked up): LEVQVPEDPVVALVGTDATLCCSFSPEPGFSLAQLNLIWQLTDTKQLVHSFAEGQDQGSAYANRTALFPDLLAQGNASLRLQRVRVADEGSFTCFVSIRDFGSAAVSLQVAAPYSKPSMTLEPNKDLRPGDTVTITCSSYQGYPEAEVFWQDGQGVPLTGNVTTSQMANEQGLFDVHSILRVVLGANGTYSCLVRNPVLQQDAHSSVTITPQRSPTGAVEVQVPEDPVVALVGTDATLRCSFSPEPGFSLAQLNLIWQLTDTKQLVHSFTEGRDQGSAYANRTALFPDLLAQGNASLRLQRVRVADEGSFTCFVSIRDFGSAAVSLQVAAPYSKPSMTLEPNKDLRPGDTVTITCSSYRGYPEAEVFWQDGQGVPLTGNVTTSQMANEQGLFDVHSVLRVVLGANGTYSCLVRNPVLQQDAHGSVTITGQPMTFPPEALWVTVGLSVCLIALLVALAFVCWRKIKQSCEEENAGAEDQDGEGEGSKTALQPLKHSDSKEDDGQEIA

[2] = target: T1, B7-H3 on human tumor cell lines (HT29, …); test: flow cytometry on HCC827 cells (experiment 2)
[3] = target: T2, rat B7-H3-his protein (rat, UniProt Q7TPB4 29-248, limits assumed); test: BLI (ForteBio), ADC captured on Protein A sensor (result 2)
T2 construct: not shown: His tag
T2 sequence (looked up): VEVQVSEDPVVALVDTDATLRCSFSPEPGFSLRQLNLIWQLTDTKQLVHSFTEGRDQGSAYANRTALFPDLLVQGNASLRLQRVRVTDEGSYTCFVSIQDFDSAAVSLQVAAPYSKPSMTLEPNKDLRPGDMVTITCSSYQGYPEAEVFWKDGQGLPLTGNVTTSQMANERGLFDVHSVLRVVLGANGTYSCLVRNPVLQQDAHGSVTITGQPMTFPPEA

[4] = target: T3, human B7-H3-2Ig-his protein (human, UniProt Q5ZPR3-2 29-245, limits assumed); test: BLI (ForteBio), ADC on Protein A sensor, antigen 200-3.125 nM, 1:1 global fit (result 2)
T3 construct: the 2Ig form is its isoform 2; not shown: His tag
T3 sequence (looked up): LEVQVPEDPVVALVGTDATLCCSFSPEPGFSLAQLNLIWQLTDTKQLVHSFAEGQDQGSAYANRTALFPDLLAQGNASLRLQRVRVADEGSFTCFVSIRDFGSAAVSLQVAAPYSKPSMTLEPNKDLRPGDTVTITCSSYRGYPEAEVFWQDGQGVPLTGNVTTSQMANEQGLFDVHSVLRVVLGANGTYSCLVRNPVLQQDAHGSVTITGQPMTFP

[5] = target: monkey B7-H3-his protein (monkey); test: as above
[6] = target: T4, human B7-H3-4Ig-his protein (human, UniProt Q5ZPR3 29-461, limits assumed); test: as above
T4 construct: not shown: His tag
T4 sequence (looked up): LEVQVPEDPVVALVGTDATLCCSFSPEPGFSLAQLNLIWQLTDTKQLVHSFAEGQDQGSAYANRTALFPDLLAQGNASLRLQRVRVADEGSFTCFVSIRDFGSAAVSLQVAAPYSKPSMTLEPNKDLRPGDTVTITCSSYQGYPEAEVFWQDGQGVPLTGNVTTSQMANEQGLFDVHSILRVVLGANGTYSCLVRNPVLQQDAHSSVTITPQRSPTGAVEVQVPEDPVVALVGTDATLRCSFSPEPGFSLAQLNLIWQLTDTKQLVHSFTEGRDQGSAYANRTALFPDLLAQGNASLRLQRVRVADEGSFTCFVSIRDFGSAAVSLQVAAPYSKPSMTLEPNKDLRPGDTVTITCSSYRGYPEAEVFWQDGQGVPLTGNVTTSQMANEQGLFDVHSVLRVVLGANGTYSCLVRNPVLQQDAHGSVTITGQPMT

EC50 [1]: 3.21 ng/mL
EC50 [2]: 8.05 ng/mL
Kd [4]: 42 nM
Kd [5]: 2.57 nM
Kd [6]: 1.04 nM
B1: ADC 17 (2#8890-B-03, DAR 8) (antibody, human IgG1, kappa, V domains shown)
VH: QVQLQESGPGLVQPSGTLSLTCAVSGGSDSSTNWWTWVRQSPGQGLEWIGEISPIGFTSYSPSLRSRVTISVDKSKTQFSLKLSSVTAADTAVYYCARDRLYFAFWGQGTLVTVSS
VL: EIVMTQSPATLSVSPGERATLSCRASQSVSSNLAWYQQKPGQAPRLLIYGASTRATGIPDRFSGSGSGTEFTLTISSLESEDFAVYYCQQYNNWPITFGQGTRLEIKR
modifications: cysteine sulfhydryls carry drug-linker B-03 (sites not stated; DAR 7.82 per antibody)
binding result [3]: no binding (tested: 200 nM (highest antigen concentration))
